This series addresses T1, PTK7 (receptor on HCT116 cells) (human (HCT116 colon cancer cells)) (UniProt Q13308).
T1 sequence: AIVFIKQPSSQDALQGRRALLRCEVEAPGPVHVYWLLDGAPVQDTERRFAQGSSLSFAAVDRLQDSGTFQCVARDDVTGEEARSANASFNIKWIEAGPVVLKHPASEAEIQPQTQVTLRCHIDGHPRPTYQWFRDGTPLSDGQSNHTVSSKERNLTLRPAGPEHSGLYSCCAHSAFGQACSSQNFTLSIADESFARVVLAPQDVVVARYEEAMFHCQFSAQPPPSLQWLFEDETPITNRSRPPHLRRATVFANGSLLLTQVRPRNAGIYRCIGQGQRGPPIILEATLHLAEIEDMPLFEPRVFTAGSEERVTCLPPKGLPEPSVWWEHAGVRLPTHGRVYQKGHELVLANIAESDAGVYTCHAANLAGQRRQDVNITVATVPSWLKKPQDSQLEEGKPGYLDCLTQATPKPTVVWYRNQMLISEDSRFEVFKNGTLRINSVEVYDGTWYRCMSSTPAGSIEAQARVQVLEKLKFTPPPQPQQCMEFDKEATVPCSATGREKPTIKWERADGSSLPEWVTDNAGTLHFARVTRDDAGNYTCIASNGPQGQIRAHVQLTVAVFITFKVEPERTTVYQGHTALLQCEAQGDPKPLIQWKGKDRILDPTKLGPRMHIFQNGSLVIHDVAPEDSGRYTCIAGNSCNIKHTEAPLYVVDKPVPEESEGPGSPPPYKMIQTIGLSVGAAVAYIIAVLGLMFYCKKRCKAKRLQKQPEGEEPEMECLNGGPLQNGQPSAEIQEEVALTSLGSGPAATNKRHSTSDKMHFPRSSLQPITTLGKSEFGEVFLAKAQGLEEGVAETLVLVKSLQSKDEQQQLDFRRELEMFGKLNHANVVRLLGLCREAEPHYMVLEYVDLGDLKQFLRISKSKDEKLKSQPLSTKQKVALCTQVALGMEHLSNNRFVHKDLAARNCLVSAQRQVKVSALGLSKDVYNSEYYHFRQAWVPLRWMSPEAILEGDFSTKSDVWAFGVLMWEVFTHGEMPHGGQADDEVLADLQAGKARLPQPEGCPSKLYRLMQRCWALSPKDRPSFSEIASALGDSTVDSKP
Description: flow cytometry. As to conditions: 250 nM aptamer (varied for Kd), 30 min at 4 C, DPBS with ~5 mM MgCl2, 0.1 mg/mL yeast tRNA, 1 mg/mL BSA (a 2.25 g additive in the wash buffer is …). Background: Flow cytometry measures light scatter and fluorescence of single cells or particles in a stream.

The text below walks through data of article PMC12208130.

With “ATCTAACTGCTGCGCCGCCGGGAAAATACTGTACGGTTAGA [Sgc8-23A]”, the Kd (usually the free concentration of one partner at which half of the binding sites on the other are occupied at equilibrium, for simple one-to-one binding) (A23 = cordycepin (3'-deoxyadenosine), 2'-5' linkage) was 6.3 nM.

In turn, “ATCTAACTGCTGCGCCGCCGGGAAAATACTGTACGGTTAGA [Sgc8c (Sgc8-Cy5)]” returned a Kd of 5.92 nM.
